Measurements: patent US20180057604A1 (Genentech, published 2018)
Read-outs that look alike come from different tables or passages of the source.

Legend:
[1] = biological target: human BACE1 ECD; assay: cell-based or functional assay
[2] = biological target: murine BACE1 ECD; assay: cell-based or functional assay
[3] = biological target: T1, BACE1 in primary mouse cortical neurons (mouse, UniProt P56818 46-501); assay: cell-based or functional assay
[4] = biological target: T2, human BACE1 (R&D Systems) (human, UniProt P56817); assay: SPR (Biacore)
T2 construct: recombinant, commercial (R&D Systems)

[5] = biological target: BACE1 (HTRF long substrate and FRET short substrate assays of Example 9D); assay: cell-based or functional assay
[6] = biological target: T3, human BACE1 ECD; assay: Octet, pH 7.5
T3 construct: analyte of the Octet assay (200 nM) and enzyme of the first short substrate assay; also called human BACE1 extracellular domain

[7] = biological target: T4, murine BACE1 ECD; assay: Octet, pH 7.5
T4 construct: analyte of the Octet assay (200 nM) and enzyme of the first short substrate assay

[8] = biological target: T3, human BACE1 ECD; assay: Octet, pH 5.0
[9] = biological target: T4, murine BACE1 ECD; assay: Octet, pH 5.0
[10] = biological target: T1, BACE1 in primary mouse cortical neurons; assay: cell-based or functional assay; remark: listed apart in the source
[11] = biological target: T3, human BACE1 ECD; assay: Octet, pH 7.5; remark: listed apart in the source
[12] = biological target: T4, murine BACE1 ECD; assay: Octet, pH 7.5; remark: listed apart in the source
[13] = biological target: T3, human BACE1 ECD; assay: Octet, pH 5.0; remark: listed apart in the source
[14] = biological target: T4, murine BACE1 ECD; assay: Octet, pH 5.0; remark: listed apart in the source
[15] = biological target: T1, BACE1 in primary mouse cortical neurons; assay: cell-based or functional assay; remark: listed apart in the source

T2 sequence (P56817 22-457 limits assumed): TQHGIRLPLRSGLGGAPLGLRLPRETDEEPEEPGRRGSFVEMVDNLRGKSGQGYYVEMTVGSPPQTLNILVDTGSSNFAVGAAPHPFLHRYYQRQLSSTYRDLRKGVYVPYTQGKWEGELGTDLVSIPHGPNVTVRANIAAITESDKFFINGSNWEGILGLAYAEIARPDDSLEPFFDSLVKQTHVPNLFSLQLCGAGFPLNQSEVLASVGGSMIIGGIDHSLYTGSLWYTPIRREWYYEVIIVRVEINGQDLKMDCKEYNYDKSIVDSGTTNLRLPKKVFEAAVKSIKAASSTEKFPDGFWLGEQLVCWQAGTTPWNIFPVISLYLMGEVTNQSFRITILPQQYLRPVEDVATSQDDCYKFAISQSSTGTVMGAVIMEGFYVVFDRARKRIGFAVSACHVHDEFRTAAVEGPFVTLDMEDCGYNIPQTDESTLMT
T4 sequence (single chain, as listed by the source limits assumed): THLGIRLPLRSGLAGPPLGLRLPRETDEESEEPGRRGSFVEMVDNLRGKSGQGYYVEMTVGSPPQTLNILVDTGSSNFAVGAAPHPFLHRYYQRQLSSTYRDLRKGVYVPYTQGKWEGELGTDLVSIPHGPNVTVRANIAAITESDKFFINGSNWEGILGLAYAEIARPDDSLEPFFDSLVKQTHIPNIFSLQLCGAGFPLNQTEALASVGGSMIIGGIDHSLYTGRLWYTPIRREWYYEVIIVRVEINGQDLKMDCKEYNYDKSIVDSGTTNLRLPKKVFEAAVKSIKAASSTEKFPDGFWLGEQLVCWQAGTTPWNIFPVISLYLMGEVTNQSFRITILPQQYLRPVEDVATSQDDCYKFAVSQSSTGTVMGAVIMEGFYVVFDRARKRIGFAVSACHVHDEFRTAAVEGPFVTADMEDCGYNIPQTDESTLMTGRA
T3 sequence (single chain, as listed by the source limits assumed): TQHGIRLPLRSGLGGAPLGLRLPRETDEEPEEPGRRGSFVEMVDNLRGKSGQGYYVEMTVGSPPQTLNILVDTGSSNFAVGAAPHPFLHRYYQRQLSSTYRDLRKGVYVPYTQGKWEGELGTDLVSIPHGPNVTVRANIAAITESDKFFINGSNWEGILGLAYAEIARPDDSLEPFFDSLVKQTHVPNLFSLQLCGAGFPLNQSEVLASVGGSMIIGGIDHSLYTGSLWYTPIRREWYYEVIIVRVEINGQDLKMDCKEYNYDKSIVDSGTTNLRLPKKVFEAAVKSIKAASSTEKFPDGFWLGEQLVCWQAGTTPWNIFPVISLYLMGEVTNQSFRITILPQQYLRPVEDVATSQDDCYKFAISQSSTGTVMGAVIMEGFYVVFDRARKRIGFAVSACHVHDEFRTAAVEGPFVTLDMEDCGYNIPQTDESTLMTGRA
T1 sequence (P56818 46-501): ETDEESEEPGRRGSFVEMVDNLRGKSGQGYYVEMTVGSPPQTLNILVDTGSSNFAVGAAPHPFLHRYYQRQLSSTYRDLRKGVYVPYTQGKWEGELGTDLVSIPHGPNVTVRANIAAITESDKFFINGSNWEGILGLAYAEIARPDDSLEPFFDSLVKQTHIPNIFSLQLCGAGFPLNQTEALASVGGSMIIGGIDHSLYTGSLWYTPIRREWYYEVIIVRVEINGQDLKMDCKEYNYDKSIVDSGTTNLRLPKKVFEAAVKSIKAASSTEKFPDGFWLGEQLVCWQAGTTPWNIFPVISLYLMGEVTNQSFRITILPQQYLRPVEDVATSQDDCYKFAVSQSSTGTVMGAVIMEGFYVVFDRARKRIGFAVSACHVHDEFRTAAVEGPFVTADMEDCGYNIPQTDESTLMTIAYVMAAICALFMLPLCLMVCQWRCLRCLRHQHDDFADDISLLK

Binder | % inhibition of BACE1 activity, short FRET substrate [1] | % inhibition of BACE1 activity, short FRET substrate [2] | IC50, Abeta x-40 in mouse cortical neurons [3] | maximal % inhibition of Abeta x-40 [3] | Kd [4] | EC50, FRET short substrate [5] | EC50, HTRF long substrate [5] | Kd [6] | Kd [7] | Kd [8] | Kd [9] | IC50, Abeta x-40 in mouse cortical neurons [10] | maximal % inhibition of Abeta x-40 [10] | Kd [11] | Kd [12] | Kd [13] | Kd [14] | IC50, Abeta x-40 in mouse cortical neurons [15] | maximal % inhibition of Abeta x-40 [15]
5888 (antibody, V domains shown, anti-BACE1 IgG) VH: QVQLVQSGAEVKKPGSSVKVSCKASGGTFWKYAISWVRQAPGQGLEWMGNIIPGFGTANYAQKFRGRVTITADESTSTAYMELSSLRSEDTAVYYCARSGGTKYGMLDVWGQGTMVTVSS VL: EIVMTQSPATLSVSPGERATLSCRASQSVSSNLAWYQQKPGQAPRLLIYGASTRATGIPARFSGSGSGTEFTLTISSLQSEDFAVYYCQQLILWPPRTFGGGTKVEIK | -86% | -183% | 1.79 nM | 82% | 4.25 nM | 0.602 nM | 2.5 nM | 0.86 nM | 1.4 nM | 1.8 nM | 2 nM | – | – | – | – | – | – | – | –
6305 (antibody, V domains shown, anti-BACE1 IgG) VH: QVQLVQSGAEVKKPGSSVKVSCKASGGTLSGYAISWVRQAPGQGLEWMGNIIPGFGTANYAQKSQGRVTITADESTSTAYMELSSLRSEDTAVYYCARSGGTRYGMLDVWGQGTMVTVSS VL: EIVLTQSPATLSVSPGERATLSCRASQSVGSNLAWYQQKPGQAPRLLIYGASTRATGIPARFSGSGSGTEFTLTISSLQSEDFAVYYCQQSFVWPPRTFGGGTKVEIK | – | – | – | – | – | – | – | – | – | – | – | 9.69 nM | 67% | 0.53 nM | 0.56 nM | 0.96 nM | 1.6 nM | – | –
5930 (antibody, V domains shown, anti-BACE1 IgG) VH: QVQLVQSGAEVKKPGSSVKVSCKASGGTLSGYAISWVRQAPGQGLEWMGNIIPGFGTANYAQKSQGRVTITADESTSTAYMELSSLRSEDTAVYYCARSGGTRYGMLDVWGQGTMVTVSS VL: EIVMTQSPATLSVSPGERATLSCRASQSVGSNLAWYQQKPGQAPRLLIYGASTRATGIPARFSGSGSGTEFTLTISSLQSEDFAVYYCQQLYTWPPRTFGGGTKVEIK | – | – | – | – | 6.41 nM | – | – | < 0.29 nM | < 0.3 nM | < 0.23 nM | < 0.29 nM | – | – | – | – | – | – | 7.52 nM | 74%

Further lines, results first:

% inhibition of BACE1 activity, short FRET substrate [1] | % inhibition of BACE1 activity, short FRET substrate [2] | IC50, Abeta x-40 in mouse cortical neurons [3] | maximal % inhibition of Abeta x-40 [3] | Kd [4] | EC50, FRET short substrate [5] | EC50, HTRF long substrate [5] | Kd [6] | Kd [7] | Kd [8] | Kd [9] | IC50, Abeta x-40 in mouse cortical neurons [10] | maximal % inhibition of Abeta x-40 [10] | Kd [11] | Kd [12] | Kd [13] | Kd [14] | IC50, Abeta x-40 in mouse cortical neurons [15] | maximal % inhibition of Abeta x-40 [15] | Binder
1% | -3% | 0.3 nM | 62% | 2.07 nM | 0.528 nM | 1.39 nM | 0.95 nM | 1.1 nM | 0.82 nM | 0.82 nM | – | – | – | – | – | – | – | – | 5897 (antibody, V domains shown, anti-BACE1 IgG) VH: QLQLQESGPGLVKPSETLSLTCTVSGGSISWSSYYWSWIRQPPGKGLEWIGSIYKSGRTYYNPSLKSRVTISVDTSKNQFSLKLSSVTAADTAVYYCARVGHGISYFDLWGRGTLVTVSS VL: EIVLTQSPATLSLSPGERATLSCRASQSVSSYLAWYQQKPGQAPRLLIYDASNRATGIPARFSGSGSGTDFTLTISSLEPEDFAVYYCQQSLTWPPRTFGGGTKVEIK
72% | 69% | 9.46 nM | 73% | 2.76 nM | 8.84 nM | 3.59 nM | 0.33 nM | 0.98 nM | 0.38 nM | 0.73 nM | – | – | – | – | – | – | – | – | 5893 (antibody, V domains shown, anti-BACE1 IgG) VH: QVQLVQSGAEVKKPGSSVKVSCKASGGTFRGYAISWVRQAPGQGLEWMGNIIPGFGTANYAQKFQGRVTITADESTSTAYMELSSLRSEDTAVYYCARSGGTKYGMLDVWGQGTMVTVSS VL: EIVMTQSPATLSVSPGERATLSCRASQSVGSNLAWYQQKPGQAPRLLIYGASTRATGIPARFSGSGSGTEFTLTISSLQSEDFAVYYCQQLYTWPPRTFGGGTKVEIK
66% | 69% | 8.45 nM | 77% | 3.22 nM | 32.4 nM | 4.06 nM | 0.55 nM | 1 nM | 0.64 nM | 0.79 nM | – | – | – | – | – | – | – | – | 5890 (antibody, V domains shown, anti-BACE1 IgG) VH: QVQLVQSGAEVKKPGSSVKVSCKASGGTFSSYAISWVRQAPGQGLEWMGNIIPGFGTANYAQKFQGRVTITADESTSTAYMELSSLRSEDTAVYYCARSGGTKYGMLDVWGQGTMVTVSS VL: EIVMTQSPATLSVSPGERATLSCRASQSVGSNLAWYQQKPGQAPRLLIYGASTRATGIPARFSGSGSGTEFTLTISSLQSEDFAVYYCQQLYTWPPRTFGGGTKVEIK
71% | 70% | 18 nM | 78% | 3.29 nM | 12.4 nM | 3.03 nM | 0.65 nM | 1.4 nM | 0.96 nM | 1.1 nM | – | – | – | – | – | – | – | – | 5891 (antibody, V domains shown, anti-BACE1 IgG) VH: QVQLVQSGAEVKKPGSSVKVSCKASGGTFSSYAISWVRQAPGQGLEWMGNIIPIFGPANYAQKFQGRVTITADESTSTAYMELSSLRSEDTAVYYCARSGGTKYGMLDVWGQGTMVTVSS VL: EIVMTQSPATLSVSPGERATLSCRASQSVGSNLAWYQQKPGQAPRLLIYGASTRATGIPARFSGSGSGTEFTLTISSLQSEDFAVYYCQQLYTWPPRTFGGGTKVEIK
64% | 64% | 9.52 nM | 73% | 2.97 nM | 16.4 nM | 1.19 nM | 0.88 nM | 1.3 nM | 0.39 nM | 1.1 nM | – | – | – | – | – | – | – | – | 5892 (antibody, V domains shown, anti-BACE1 IgG) VH: QVQLVQSGAEVKKPGSSVKVSCKASGGTFSSYAISWVRQAPGQGLEWMGNIIPIFGTATYAQKFQGRVTITADESTSTAYMELSSLRSEDTAVYYCARSGGTKYGMLDVWGQGTMVTVSS VL: EIVMTQSPATLSVSPGERATLSCRASQSVGSNLAWYQQKPGQAPRLLIYGASTRATGIPARFSGSGSGTEFTLTISSLQSEDFAVYYCQQLYTWPPRTFGGGTKVEIK
